Patent publication US20100016226A1
Where “and” joins values, the source holds several entries; their conditions need not be identical. Equal entries are not always repeated. Where no end group is shown, it is not given here. The star is where a group is joined. 125I = [125I]*

Columns and labels:
[1] = target: UAG binding sites on human CAC (circulating angiogenic cell) membranes (human); test: saturation radioligand binding on CAC membranes
[2] = target: UAG binding sites on human CAC (circulating angiogenic cell) membranes (human); test: radioligand binding to fresh CAC membranes, two cell preparations
[3] = target: UAG binding sites on human CAC (circulating angiogenic cell) membranes (human); test: saturation radioligand binding on CAC membranes, Scatchard analysis
[4] = target: UAG binding sites on human CAC (circulating angiogenic cell) membranes (human); test: radioligand binding to frozen-thawed CAC membranes, two cell preparations
[5] = target: UAG binding sites on human CAC (circulating angiogenic cell) membranes (human); test: radioligand binding to CAC membranes; binding without minus binding with 100 nM unlabelled UAG

- radioligand concentration at maximal specific binding [1]: 2 nM
- specific binding, fresh CAC membranes [2]: 0.25 fmol and 0.26 fmol
- Bmax (fmol/mg membrane protein) [3]: 10.7
- Kd [3]: 0.48 nM
- specific binding, frozen-thawed CAC membranes [4]: 0.2 fmol and 0.33 fmol
- specific binding, percent of control value [5]: 75%
Binder: GSSY(125I)LSPEHQRVQQRKESKKPPAKLQPR [[125I-Tyr4]-UAG]
